Reference: patent US11400156B2, “Methods of preventing secondary infections” (Yeda Research and Development Co. Ltd., priority 2015, dated 2022)
Read-outs that look alike come from different tables or passages of the source.

Columns and labels:
[1] = system: influenza A/Puerto Rico/8/34 (A/PR/8/34, H1N1); type: in vivo, C57BL/6J mice
[2] = system: influenza A/Puerto Rico/8/34 (A/PR/8/34, H1N1); type: in vivo, C57BL/6J mice; remark: listed apart in the source
[3] = system: PR8 influenza virus followed by S. pneumoniae; type: in vivo, C57BL/6J mice
S. pneumoniae = type: in vivo, C57BL/6J mice
MT1-MMP = MT1-MMP (Homo sapiens, UniProt P50281); details: cited from earlier work
[4] = system: influenza A/Puerto Rico/8/34 (A/PR/8/34, H1N1); type: in vivo, C57BL/6J mice; remark: listed apart in the source
[5] = system: collagenolytic activity in lung section; set-up: species or system C57BL/6J mice; details: mouse, in vivo
[6] = sub-lethal PR8 influenza, 74 hours post infection
[7] = influenza-infected mice, versus control treated

With `CCOC(=O)C1=C[C@@H](OC(CC)CC)[C@H](NC(C)=O)[C@@H](N)C1` [Tamiflu, Oseltamivir phosphate, reference compound] the “tissue integrity, ECM morphology and collagen structure (AirSEM)” value ([1]; mouse, in vivo) was “same destructive lung tissue and ECM phenotypes were observed”, the “reduction of viral burden in whole-lung homogenates (qPCR)” value ([2]; versus vehicle-treated mice) was 10-100 fold and the “alveolar and bronchial structures / collateral damage in lung ECM (AirSEM)” value ([3]; mouse, in vivo) was “ineffective in preventing collateral damage in the lung ECM”. For the same molecule, the “survival rates and clinical scores, preventive treatment (comparison in words)” value ([3]; mouse, in vivo) was “same survival rates and clinical scores as the group that received anti-MT1-MMP”, the “survival, therapeutic treatment” value ([3]; mouse, in vivo) was 20% and the “bacteremia and dissemination of S. pneumoniae from lungs to systemic circulation and spleen” value (“bacteremia and dissemination” for short) (S. pneumoniae; mouse, in vivo) was “developed sepsis”.

B1: LEM 2/15: selective allosteric inhibitory antibody of MT1-MMP from LEM-2/15 hybridoma cells; Fab fragment given to mice at 3 mg/kg (antibody, V domains shown)
VL: LVIDVLMTQTPLSLPVGLGDQASISCRSSQSIVHSNGNTYLEWYLQKPGQSPKLLIYKVSNRFSGVPDRFSGSGSGTDFTLKISRVEAEDLGVYYCFQGSHAPYTFGGGTKLEIKR
VH: EVKLVESGGGLVKPGGSLKLSCAASGFIFSNYAMSWVRQTPEKRLEWVATISGGGRNIYSLDSVKGRFTFFRDNARNTLYLQMSSLRSEDTAMYFCSRENYGSSFTYWGQGTLVTVS
modifications: Fab fragment; LEM-2/15.8 antibody VH amino acid sequence; LEM-2/15.8 antibody VL amino acid sequence
With B1 the “collagen type I fibers (two-photon second harmonic generation, 3D analysis)” value [1, 6] was “more abundant”, the “laminin degradation in infected lungs (immunostaining)” value [1, 6] was “protected laminin” and the “tissue integrity, ECM morphology and collagen structure (AirSEM)” value [1, 6] was “protected tissue integrity”. For the same molecule, the “effect on viral burden, early phases of infection” value ([2]; 24 hours post infection) was “minimal effect”, the “effect on viral burden, later stages” value ([2]; later stages of infection) was “no effect was discernible” and the “survival rates and clinical scores, preventive treatment (comparison in words)” value ([3]; co-infection, treatment one day before infection (-1)) was “equally effective in preventing co-infection induced mortality”. The “survival, therapeutic treatment” value ([3]; co-infection, treatment one day post infection (+1)) was 70%, the “concentration at which the inhibitory antibody of MT1-MMP is effective” value (MT1-MMP; inhibits collagenase activity of MT1-MMP expressed on the cell surface) was “nano-molar concentrations” and the “interference with proMMP-2 activation and enzyme dimerization on the cell surface” value (MT1-MMP; selectivity of inhibition) was “without significantly interfering”. For the same molecule, the “recruitment of macrophages and neutrophils to infected lungs (FACS)” value ([4]; 74 hours post-infection, versus control antibody) was “no detectable differences”, the “IL-1β level in BALF” value [4, 7] was “strongly induced in influenza-infected mice regardless of MT1-MMP activity” and the “TNF-α level in BALF” value [4, 7] was “strongly induced in influenza-infected mice regardless of MT1-MMP activity”. The “bacteremia and dissemination” value (S. pneumoniae; co-infected mice, 2 days post bacterial infection, listed as MT1-MMP inhibitory antibody) was “reduced spread of bacteria”, the “bacteremia and dissemination” value (S. pneumoniae; co-infected mice, 2 days post bacterial infection, listed as anti-MT1-MMP inhibitor) was “did not develop systemic bacterial dissemination” and the “proteolysis by functional in situ zymography” value [5] was “significant attenuation of proteolysis”.
